± gives the standard deviation of the averaged measurements.
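Also: PSI is a weighted mean of sequencing reads over stability bins, variants kept only with over 10 reads, mCherry proximal and sfGFP distal, peptide attached via GGGS linker.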

The test system of this data set is Saccharomyces cerevisiae. Description: protein stability index of tFT-peptide fusion (C-terminal peptide) (PSI (0-1 scale)); higher = more stable (slower turnover). The note with it: genetic background: wild type; temperature: 30 C.
Turning to RKKRRKVKRSEK, the protein stability index came out at 0.547 ± 0.034.
Next, RKKTKKEKSEEI: 0.694 ± 0.031; RKLHDKDDPKTI: 0.681 ± 0.03; RKMQKKFESKKM: 0.76 ± 0.039.
Next, RKMTSIINKKTV: 0.513 ± 0.0083.
Consider RKNENKKKKNKK, for which the protein stability index is 0.702 ± 0.012.
For the sequence RKQHKLRKTKRA, the protein stability index came to 0.657 ± 0.061.
Next, RKQKRGSKKKKQ: 0.721 ± 0.049; RKQRERGKCGKR: 0.726 ± 0.031; RKRHDLPPAGPH: 0.713 ± 0.023.
As for RKRTIVCRPGRV, the protein stability index came out at 0.698 ± 0.021.
As for RKSKYKGTQRIN, the figure is 0.564 ± 0.011; as for RKTQKIEQKQKE, 0.756 ± 0.076.
As for RKVTKLYDNIML, the figure is 0.776 ± 0.1; as for RKVVLLFGLGEG, 0.669 ± 0.026; as for RLAPASAFPHSP, 0.687 ± 0.052.
In the case of RLAVGMIRPQGE, the protein stability index is 0.637 ± 0.024.
In turn, RLDGVTPVRTCL yielded a protein stability index of 0.661 ± 0.054.
Next, RLEDGCGVGAGR: 0.645 ± 0.015; RLFPSPIYLARF: 0.676 ± 0.12.
The sequence RLGECSRKSYHT returned a protein stability index of 0.692 ± 0.024.
The sequence RLGGLLCSPLVD yielded a protein stability index of 0.705 ± 0.097.
RLGPSAPLFVHL had a protein stability index of 0.542 ± 0.042.
Next, RLGRATLLLLFF: 0.572 ± 0.12; RLHSLLFYALGS: 0.668 ± 0.028.
Next, RLLASIRAAQAS: 0.525 ± 0.1.
As for RLLDLRLYVGKG, the figure is 0.618 ± 0.012; as for RLLENVSYDWRN, 0.714 ± 0.016; as for RLLFPPPMLPPP, 0.735 ± 0.038.
Consider RLLGSSPAVLLY, for which the protein stability index stood at 0.628 ± 0.062.
Next, RLLLSVLFGFFA: 0.5248 ± 0.0011; RLLYGICLLGAS: 0.558 ± 0.092.
Next, RLPPPPSPPPPP: 0.688 ± 0.016.
As for RLPPPSPPVPLL, the protein stability index was found to be 0.695 ± 0.0081.
The sequence RLPVKQQVLPDK yielded a protein stability index of 0.6783 ± 0.0062.
Next, RLQSSRQMLVPS: 0.63729 ± 0.00036; RLRESMYPSSEE: 0.717 ± 0.0085.
Turning to RLREVVHKYNSI, the protein stability index turned out to be 0.757 ± 0.086.
As for RLRRSSSNPHSP, the figure is 0.656 ± 0.043; as for RLSCCKCRGGAV, 0.6979 ± 0.0042; as for RLSFSVPPCLDI, 0.691 ± 0.032.
Next, RLSLGPGLLGSH: 0.74 ± 0.014; RLSNIARRQENG: 0.623 ± 0.017; RLSPPPTLSRFH: 0.643 ± 0.03.
Next, RLSSPTRINHPN: 0.71 ± 0.04; RLTLKKMIKQNV: 0.56 ± 0.016; RLTLPSQPHAPA: 0.694 ± 0.098.
In turn, RLTYVGDYELYV returned a protein stability index of 0.686 ± 0.053.
Next, RLVAHPSRPLPV: 0.647 ± 0.033; RLVISPRSRPCP: 0.725 ± 0.069; RLVLRGRWGIGR: 0.618 ± 0.0014.
As for RLVTSCSAAGSG, the figure is 0.671 ± 0.007; as for RLWKQPWLTMAF, 0.496 ± 0.038.
In turn, RLWPPGGEFRLV came in with a protein stability index of 0.719 ± 0.078.
Next, RLWSSFKRHGAA: 0.743 ± 0.022.
Next, RLYCSWEFTFVQ: 0.617 ± 0.019; RMATGNPAPHPP: 0.735 ± 0.04; RMSHFNTDSVHF: 0.761 ± 0.019.
As for RNGALSVVCDYV, the figure is 0.698 ± 0.15.
Consider RNIMKQQNTSIR, for which the protein stability index was found to be 0.717 ± 0.078.
The sequence RNIQKKKKIQHI displayed a protein stability index of 0.514 ± 0.047.
As for RNKEPRSSRQNS, the protein stability index came out at 0.578 ± 0.009.
Next, RNRTNVETKTGS: 0.6966 ± 0.0034.
Next, RPAPPLFVSSPG: 0.699 ± 0.0097; RPAPPPHPLSPV: 0.7 ± 0.031; RPEVRIHITSQS: 0.655 ± 0.017.
As for RPFPLTRPTLLF, the figure is 0.67 ± 0.016; as for RPGDAASGARGA, 0.691 ± 0.081; as for RPGPRAASADCP, 0.72 ± 0.025.
Consider RPIPMEGAYYLV, for which the protein stability index was determined as 0.693 ± 0.027.
As to RPKPKRIGREEP, the protein stability index came to 0.63 ± 0.083.
As for RPLPPLPPPSCP, the figure is 0.71 ± 0.046; as for RPLPPPPPPRSP, 0.741 ± 0.21.
RPPAPQTATPHR displayed a protein stability index of 0.726 ± 0.013.
Next, RPPCFRPPPPPL: 0.715 ± 0.072; RPPPGTPPGWSP: 0.73 ± 0.028.
As for RPPPPLPQAPPT, the figure is 0.679 ± 0.0082.
As for RPPPPPSPPPPP, the figure is 0.674 ± 0.073.
For the sequence RPPPPSPAPTPP, the protein stability index worked out at 0.723 ± 0.045.
As for RPPPRPPHPPPL, the figure is 0.6791 ± 0.0048; as for RPPYIALAPSDR, 0.694 ± 0.0097.
Next, RPPYRRSPPRSP: 0.616 ± 0.019; RPRVETGGLPWV: 0.703 ± 0.029.
As for RPSHSRPITLPT, the figure is 0.707 ± 0.12.
In turn, RPSLPPSPPPPP displayed a protein stability index of 0.848 ± 0.22.
As for RPSLTPSPPPFP, the figure is 0.64 ± 0.018; as for RPSPSAQFITCA, 0.646 ± 0.013.
Next, RPSVSNVSEAEE: 0.6479 ± 0.0037; RPTPLSTPPPLG: 0.644 ± 0.039; RPTQYIYGINET: 0.6525 ± 0.0034.
As for RQDGSPREGIRH, the figure is 0.713 ± 0.04; as for RQKNKIATVVEE, 0.664 ± 0.026; as for RQRSTGGISNRS, 0.718 ± 0.043.
As for RQSLEDSLLHQH, the protein stability index worked out at 0.774 ± 0.081.
Next, RRAAVGGCLGGW: 0.726 ± 0.017; RRAAYARVFCRI: 0.641 ± 0.046.
As for RRADFSWPVVVE, the figure is 0.591 ± 0.022; as for RRARSAGADPRP, 0.684 ± 0.02; as for RRDRRVGEGEGV, 0.699 ± 0.059.
RREKQKTPAKKT: the protein stability index turned out to be 0.634 ± 0.034.
Next, RRGEKKDEKGGR: 0.67 ± 0.062.
In turn, RRGLHWQAVCRY yielded a protein stability index of 0.733 ± 0.023.
As for RRGRNDLEESMR, the figure is 0.702 ± 0.0078.
In turn, RRGVAEGVDGEG had a protein stability index of 0.615 ± 0.0071.
Next, RRGYEVSSLSDD: 0.672 ± 0.0042; RRHRPKNEVPLC: 0.705 ± 0.029; RRIIISSSYIYE: 0.672 ± 0.012.
Consider RRIQNHPDSTSA, for which the protein stability index was found to be 0.696 ± 0.067.
As for RRKGVAGKWARR, the figure is 0.586 ± 0.058; as for RRKLMLWTSKLE, 0.705 ± 0.05; as for RRLLLAGTQLYV, 0.598 ± 0.073.
As for RRLMMPSGQGLT, the figure is 0.702 ± 0.031; as for RRLNNTPPVENC, 0.753 ± 0.15.
As for RRNDRKKKSIRI, the figure is 0.684 ± 0.059.
RRPAPTRPPHTK displayed a protein stability index of 0.711 ± 0.013.
As for RRPLAPHPPLPP, the figure is 0.678 ± 0.01.

The values are drawn from the supplement of paper PMC10724198.
